Results reported in paper PMC3334620.

Assays:
[1] = target: T1, Sut1 (Saccharomyces cerevisiae) (UniProt P53032); conditions: 200 nM
T1 sequence: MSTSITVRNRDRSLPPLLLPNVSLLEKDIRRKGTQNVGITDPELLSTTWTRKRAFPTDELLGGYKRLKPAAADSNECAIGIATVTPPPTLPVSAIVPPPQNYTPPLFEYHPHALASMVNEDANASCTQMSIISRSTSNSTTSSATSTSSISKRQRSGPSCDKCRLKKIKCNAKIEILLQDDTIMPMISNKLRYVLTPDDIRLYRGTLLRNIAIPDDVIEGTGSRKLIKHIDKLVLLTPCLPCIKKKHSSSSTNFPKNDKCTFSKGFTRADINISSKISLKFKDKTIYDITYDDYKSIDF

[2] = target: T2, Yer184c (Saccharomyces cerevisiae) (UniProt P39961); conditions: 100 nM
T2 sequence: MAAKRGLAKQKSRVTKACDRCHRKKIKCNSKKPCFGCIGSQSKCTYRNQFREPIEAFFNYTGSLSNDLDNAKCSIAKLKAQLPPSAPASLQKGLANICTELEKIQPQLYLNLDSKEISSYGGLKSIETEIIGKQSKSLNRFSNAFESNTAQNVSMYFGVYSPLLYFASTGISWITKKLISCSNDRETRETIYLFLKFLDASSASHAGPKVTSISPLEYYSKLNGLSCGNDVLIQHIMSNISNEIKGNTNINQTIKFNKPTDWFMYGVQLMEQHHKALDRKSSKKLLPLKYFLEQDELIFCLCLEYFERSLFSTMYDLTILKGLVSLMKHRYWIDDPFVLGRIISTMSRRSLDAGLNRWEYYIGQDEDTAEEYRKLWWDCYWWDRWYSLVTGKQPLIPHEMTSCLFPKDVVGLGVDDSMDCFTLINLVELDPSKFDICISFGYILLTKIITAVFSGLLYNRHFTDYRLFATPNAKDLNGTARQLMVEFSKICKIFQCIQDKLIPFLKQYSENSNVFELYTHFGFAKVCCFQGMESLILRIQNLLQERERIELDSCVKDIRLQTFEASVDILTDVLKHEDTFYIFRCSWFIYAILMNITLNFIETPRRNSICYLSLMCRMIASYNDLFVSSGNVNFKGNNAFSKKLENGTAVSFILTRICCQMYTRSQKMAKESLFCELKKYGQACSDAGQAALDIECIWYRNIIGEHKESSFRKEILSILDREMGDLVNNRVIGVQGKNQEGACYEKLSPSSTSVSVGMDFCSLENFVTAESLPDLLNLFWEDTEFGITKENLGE

[3] = target: T3, Cin5 (Saccharomyces cerevisiae) (UniProt P40917); conditions: 100 nM
T3 sequence: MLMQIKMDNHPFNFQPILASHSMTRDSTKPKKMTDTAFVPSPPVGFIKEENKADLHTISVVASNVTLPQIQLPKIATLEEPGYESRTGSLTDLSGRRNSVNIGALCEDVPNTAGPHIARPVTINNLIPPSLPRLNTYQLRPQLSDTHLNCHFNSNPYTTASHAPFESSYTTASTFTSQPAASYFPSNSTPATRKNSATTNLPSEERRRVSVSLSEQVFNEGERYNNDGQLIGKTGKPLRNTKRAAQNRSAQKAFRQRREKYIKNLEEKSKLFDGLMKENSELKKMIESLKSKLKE

[4] = target: T4, Pdr3 (Saccharomyces cerevisiae) (UniProt P33200); conditions: 200 nM
T4 sequence: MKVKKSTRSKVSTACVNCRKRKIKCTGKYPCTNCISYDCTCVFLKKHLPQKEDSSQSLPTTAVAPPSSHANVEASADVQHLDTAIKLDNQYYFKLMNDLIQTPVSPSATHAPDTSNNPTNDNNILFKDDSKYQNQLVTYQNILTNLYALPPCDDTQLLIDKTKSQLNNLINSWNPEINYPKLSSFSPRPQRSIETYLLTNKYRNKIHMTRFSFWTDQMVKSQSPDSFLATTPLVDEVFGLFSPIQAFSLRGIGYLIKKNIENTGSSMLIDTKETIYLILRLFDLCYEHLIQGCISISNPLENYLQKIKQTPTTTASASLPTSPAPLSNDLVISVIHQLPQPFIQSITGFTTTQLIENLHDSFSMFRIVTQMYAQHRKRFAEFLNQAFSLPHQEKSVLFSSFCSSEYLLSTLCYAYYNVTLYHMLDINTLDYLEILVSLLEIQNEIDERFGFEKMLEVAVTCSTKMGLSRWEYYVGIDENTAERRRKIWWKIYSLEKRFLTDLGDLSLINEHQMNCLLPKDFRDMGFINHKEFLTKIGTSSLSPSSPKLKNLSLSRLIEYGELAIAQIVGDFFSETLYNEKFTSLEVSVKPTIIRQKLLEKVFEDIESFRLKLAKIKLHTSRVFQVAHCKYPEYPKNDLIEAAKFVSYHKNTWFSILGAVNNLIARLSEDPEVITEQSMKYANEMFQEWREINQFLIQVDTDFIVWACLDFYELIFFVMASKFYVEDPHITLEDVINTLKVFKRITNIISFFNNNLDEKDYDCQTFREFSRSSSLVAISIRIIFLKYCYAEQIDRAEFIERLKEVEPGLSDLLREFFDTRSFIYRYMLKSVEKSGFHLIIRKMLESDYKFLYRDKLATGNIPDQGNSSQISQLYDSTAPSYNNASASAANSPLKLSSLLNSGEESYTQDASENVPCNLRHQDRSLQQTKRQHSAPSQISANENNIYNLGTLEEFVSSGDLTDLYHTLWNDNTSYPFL

[5] = target: T5, Cad1 (Saccharomyces cerevisiae) (UniProt P24813); conditions: 100 nM
T5 sequence: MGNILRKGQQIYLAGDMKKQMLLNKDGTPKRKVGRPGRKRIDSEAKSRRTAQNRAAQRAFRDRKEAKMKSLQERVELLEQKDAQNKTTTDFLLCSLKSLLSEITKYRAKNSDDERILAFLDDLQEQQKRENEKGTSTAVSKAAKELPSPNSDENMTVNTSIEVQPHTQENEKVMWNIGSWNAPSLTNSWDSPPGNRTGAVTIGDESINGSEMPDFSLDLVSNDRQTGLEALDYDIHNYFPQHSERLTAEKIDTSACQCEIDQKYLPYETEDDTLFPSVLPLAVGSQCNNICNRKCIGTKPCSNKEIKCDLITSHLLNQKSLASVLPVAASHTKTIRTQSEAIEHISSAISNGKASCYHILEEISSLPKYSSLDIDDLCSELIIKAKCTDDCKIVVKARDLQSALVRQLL

[6] = target: T6, Sko1 (Saccharomyces cerevisiae) (UniProt Q02100); conditions: 200 nM
T6 sequence: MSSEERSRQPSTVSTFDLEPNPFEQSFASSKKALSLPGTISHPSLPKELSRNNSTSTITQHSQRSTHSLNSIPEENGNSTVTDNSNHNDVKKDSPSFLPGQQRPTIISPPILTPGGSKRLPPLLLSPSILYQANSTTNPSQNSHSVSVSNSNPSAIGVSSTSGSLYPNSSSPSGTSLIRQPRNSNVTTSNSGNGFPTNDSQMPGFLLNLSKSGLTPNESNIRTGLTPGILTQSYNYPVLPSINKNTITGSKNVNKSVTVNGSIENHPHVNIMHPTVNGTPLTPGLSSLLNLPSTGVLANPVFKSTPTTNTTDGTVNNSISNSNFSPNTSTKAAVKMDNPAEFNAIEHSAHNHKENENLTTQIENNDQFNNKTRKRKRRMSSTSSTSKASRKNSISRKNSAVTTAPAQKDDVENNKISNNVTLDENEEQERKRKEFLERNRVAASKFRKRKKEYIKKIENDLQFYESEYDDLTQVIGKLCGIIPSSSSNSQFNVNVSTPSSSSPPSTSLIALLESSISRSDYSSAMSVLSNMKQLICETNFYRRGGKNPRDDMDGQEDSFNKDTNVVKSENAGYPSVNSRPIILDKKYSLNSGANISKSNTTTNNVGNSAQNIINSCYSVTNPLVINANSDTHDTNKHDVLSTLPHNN

[7] = target: T7, Yap3 (Saccharomyces cerevisiae) (UniProt P38749); conditions: 100 nM
T7 sequence: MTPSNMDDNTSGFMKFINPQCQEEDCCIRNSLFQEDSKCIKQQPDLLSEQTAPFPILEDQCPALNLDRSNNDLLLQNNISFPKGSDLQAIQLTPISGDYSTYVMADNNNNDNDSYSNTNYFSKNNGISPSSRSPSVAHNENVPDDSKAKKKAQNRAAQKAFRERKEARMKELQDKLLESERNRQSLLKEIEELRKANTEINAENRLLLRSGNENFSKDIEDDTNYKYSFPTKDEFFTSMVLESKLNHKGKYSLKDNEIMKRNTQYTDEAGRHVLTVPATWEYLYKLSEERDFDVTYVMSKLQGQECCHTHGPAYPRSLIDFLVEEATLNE

Row | Sequence | binding signal (PBM E-score (-0.5 to 0.5)) [2] | binding signal (PBM E-score (-0.5 to 0.5)) [3] | other results
1 | ACTCCGGA (double strand) [8-mer ACTCCGGA] | 0.459 |  | binding signal (PBM E-score (-0.5 to 0.5)) [1]: 0.495
2 | TCGGCCGA (double strand) [8-mer TCGGCCGA] | 0.473 |  | 
3 | TGACATAA (double strand) [8-mer TGACATAA] |  | 0.462 | 
4 | TTACATAA (double strand) [8-mer TTACATAA] |  | 0.488 | 
5 | TTCCGGAA (double strand) [8-mer TTCCGGAA] | 0.467 |  | binding signal (PBM E-score (-0.5 to 0.5)) [4]: 0.492
6 | CTTACTAA (double strand) [8-mer CTTACTAA] |  |  | binding signal (PBM E-score (-0.5 to 0.5)) [5]: 0.484
7 | ATTAATAA (double strand) [8-mer ATTAATAA] |  |  | binding signal (PBM E-score (-0.5 to 0.5)) [5]: 0.46
8 | CTGACTAA (double strand) [8-mer CTGACTAA] |  |  | binding signal (PBM E-score (-0.5 to 0.5)) [5]: 0.488
9 | CGTAAGCA (double strand) [8-mer CGTAAGCA] |  | 0.463 | 
10 | ACGTAATA (double strand) [8-mer ACGTAATA] |  | 0.455 | binding signal (PBM E-score (-0.5 to 0.5)) [6]: 0.493
11 | TATCCGGA (double strand) [8-mer TATCCGGA] | 0.454 |  | 
12 | CCGGCCGG (double strand) [8-mer CCGGCCGG] | 0.486 |  | 
13 | TTATATAA (double strand) [8-mer TTATATAA] |  | 0.456 | 
14 | ATTTGTCA (double strand) [8-mer ATTTGTCA] |  |  | binding signal (PBM E-score (-0.5 to 0.5)) [5]: 0.465
15 | ATTACGTA (double strand) [8-mer ATTACGTA] |  | 0.49 | binding signal (PBM E-score (-0.5 to 0.5)) [6]: 0.497; binding signal (PBM E-score (-0.5 to 0.5)) [7]: 0.478
16 | TTACCTAA (double strand) [8-mer TTACCTAA] |  | 0.451 | 

Row | Sequence | binding signal (PBM E-score (-0.5 to 0.5)) [2] | binding signal (PBM E-score (-0.5 to 0.5)) [3] | other results
17 | TTACGTAA (double strand) [8-mer TTACGTAA] |  | 0.497 | binding signal (PBM E-score (-0.5 to 0.5)) [5]: 0.48; binding signal (PBM E-score (-0.5 to 0.5)) [6]: 0.496; binding signal (PBM E-score (-0.5 to 0.5)) [7]: 0.496
18 | ATTAGTCA (double strand) [8-mer ATTAGTCA] |  |  | binding signal (PBM E-score (-0.5 to 0.5)) [5]: 0.491
19 | CCGGAAAA (double strand) [8-mer CCGGAAAA] | 0.46 |  | 
20 | CGCCGGCG (double strand) [8-mer CGCCGGCG] | 0.485 |  | 
21 | ACGTAAGC (double strand) [8-mer ACGTAAGC] |  | 0.483 | 
22 | ATTAGTAA (double strand) [8-mer ATTAGTAA] |  |  | binding signal (PBM E-score (-0.5 to 0.5)) [5]: 0.49; binding signal (PBM E-score (-0.5 to 0.5)) [7]: 0.487
23 | TGACGTAA (double strand) [8-mer TGACGTAA] |  | 0.453 | binding signal (PBM E-score (-0.5 to 0.5)) [6]: 0.498
24 | ACGTAATC (double strand) [8-mer ACGTAATC] |  | 0.496 | binding signal (PBM E-score (-0.5 to 0.5)) [7]: 0.462
25 | CTTACGTA (double strand) [8-mer CTTACGTA] |  | 0.472 | 
26 | CTTAGTAA (double strand) [8-mer CTTAGTAA] |  |  | binding signal (PBM E-score (-0.5 to 0.5)) [5]: 0.471
27 | CGTAATCA (double strand) [8-mer CGTAATCA] |  | 0.458 | 
28 | GTCCGGAC (double strand) [8-mer GTCCGGAC] | 0.464 |  | 
29 | GCCGCGGC (double strand) [8-mer GCCGCGGC] | 0.475 |  | 
30 | ATTACTAA (double strand) [8-mer ATTACTAA] |  |  | binding signal (PBM E-score (-0.5 to 0.5)) [5]: 0.492; binding signal (PBM E-score (-0.5 to 0.5)) [7]: 0.479
31 | TCCGCGGA (double strand) [8-mer TCCGCGGA] | 0.481 |  | binding signal (PBM E-score (-0.5 to 0.5)) [4]: 0.5
